Literature values in paper PMC8909277.

Experiments:
claudin-9 (Homo sapiens) = claudin-9 (Homo sapiens) (UniProt O95484); experiment: BLI
claudin-4 (Homo sapiens) = claudin-4 (Homo sapiens) (UniProt O14493); experiment: SPR
Sequence of UniProt O14493 (O14493 whole entry): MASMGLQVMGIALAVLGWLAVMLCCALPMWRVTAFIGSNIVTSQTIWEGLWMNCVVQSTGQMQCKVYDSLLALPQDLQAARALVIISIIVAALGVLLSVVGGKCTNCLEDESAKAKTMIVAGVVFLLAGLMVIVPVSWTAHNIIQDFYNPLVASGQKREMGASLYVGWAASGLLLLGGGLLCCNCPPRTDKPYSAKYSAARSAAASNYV

Sequence of UniProt O95484 (O95484 whole entry): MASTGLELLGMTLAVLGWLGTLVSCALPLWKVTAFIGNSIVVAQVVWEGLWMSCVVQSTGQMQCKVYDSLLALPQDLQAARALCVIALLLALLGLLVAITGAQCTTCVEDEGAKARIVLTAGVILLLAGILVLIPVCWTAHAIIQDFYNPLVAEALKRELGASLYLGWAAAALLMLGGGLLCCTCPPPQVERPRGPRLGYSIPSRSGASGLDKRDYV

In the case of CpE (from UniProt P01558), the Kd (claudin-9 (Homo sapiens)) is listed as 5 nM.

In the case of “cCpE C-terminal domain (from UniProt P01558)”, the Kd (claudin-9 (Homo sapiens)) is listed as 5 nM and the Kd (claudin-4 (Homo sapiens)) is listed as 3.4 nM.
